Target: 14-3-3τ (UniProt P27348)
Test: split luciferase kinase inhibitor screen
Conditions: reference: DMSO-treated; sites S127

Row | Substance | other: suppressed fold change | fold change
1 | YAP (YAP1) 120-134 (from UniProt P46937) PD 407824 (CHK1), 10 μM 4 h | 1.73 | –
2 | YAP (YAP1) 120-134 (from UniProt P46937) ER 27319 (SYK), 10 μM 4 h | 3.71 | –
3 | YAP (YAP1) 120-134 (from UniProt P46937) GSK650394 (SGK), 10 μM 4 h | 1.73 | –
4 | YAP (YAP1) 120-134 (from UniProt P46937) Ryuvidine (CDK4), 10 μM 4 h | – | 5.88
5 | YAP (YAP1) 120-134 (from UniProt P46937) API-2 (PKB), 10 μM 4 h | – | 10.6
6 | YAP (YAP1) 120-134 (from UniProt P46937) SU 4312 (VEGFR1/2), 10 μM 4 h | – | 27.9
7 | YAP (YAP1) 120-134 (from UniProt P46937) Ro 08-2750 (TrkA), 10 μM 4 h | 6.51 | –
8 | YAP (YAP1) 120-134 (from UniProt P46937) PD 98059 (MEK), 10 μM 4 h | – | 16.9
9 | YAP (YAP1) 120-134 (from UniProt P46937) Ro 31-8220 (General), 10 μM 4 h | 5.21 | –
10 | YAP (YAP1) 120-134 (from UniProt P46937) BIO (GSKa/b), 10 μM 4 h | – | 14.4
11 | YAP (YAP1) 120-134 (from UniProt P46937) CGK 733 (ATM/ATR), 10 μM 4 h | 1.85 | –
12 | YAP (YAP1) 120-134 (from UniProt P46937) Genistein (EGFR), 10 μM 4 h | – | 6.12

— PMC5849716
